This is an account of results in patent US20120148607A1 (ARGEN X N V, published 2012).

The target of assay [1] is T1, c-Met SEMA ectodomain (human, UniProt P08581 27-515).
T1 construct: domain: SEMA; also called SEMA domain
Put plainly: ELISA on immobilised c-Met ectodomains.

For assay [2], the target named is T2, c-Met SEMA-PSI ectodomain (human, UniProt P08581 25-562, limits assumed).
T2 construct: domain: SEMA-PSI
Briefly: ELISA on immobilised c-Met ectodomains. A general note: In an ELISA, binding on a coated surface is turned into a signal by an enzyme label.

Assay [3] deals with T3, c-Met SEMA-PSI-IPT1-2 ectodomain (human, UniProt P08581 25-741, limits assumed).
T3 construct: domain: SEMA-PSI-IPT1-2; also called IPT1-2 (as recognised domain)
Briefly: ELISA on immobilised c-Met ectodomains.

The target in assay [4] is T4, c-Met IPT3-4 ectodomain (human, UniProt P08581 742-932, limits assumed).
T4 construct: domain: IPT3-4
Put plainly: ELISA on immobilised c-Met ectodomains.

Assay [5] deals with T5, Decoy c-Met (extracellular domain of human c-Met) (human, UniProt P08581 25-932).
T5 construct: extracellular domain; also called Decoy Met; monomeric Decoy Met
Put plainly: binding ELISA, human c-Met (Decoy).

Assay [6] addresses T6, Rhesus (Maccaca mulatta, US20090191580-5) c-Met ECD (Rhesus (Maccaca mulatta)).
T6 construct: extracellular domain; also called Rhesus c-Met ECD; Rhesus ECD
Put plainly: binding ELISA, Rhesus c-Met ECD immobilised (1 µg/ml). As for the experimental part:
Cross reactivity to Rhesus (Maccaca mulatta, US20090191580_{—}5) c-Met ECD and mouse c-Met (R&D systems cat no: 527-ME) was performed in a binding ELISA. Rhesus ECD was immobilized in PBS (1 μg/ml) on a 96-well maxisorb plate and incubated at 4° C. over night. After blocking with 1% casein in PBS, the antibodies in dilutions starting with 10 μg/ml were added and allowed to bind for 1 h at room temperature. The plate was washed and a goat anti-human Fcγ antibody (Jackson) was added and incubated for 1 h at room temperature. After washing, TMB was added and the plate read at 620 nm

Assay [7] deals with T7, human c-Met ECD (aa 25-932) with His tag (human, UniProt P08581 25-932).
T7 construct: range 25-932; Soluble protein from HEK293 cells; also called human c-Met (WT); not shown: His tag
Briefly: ELISA: 200 ng of the c-Met ECD protein coated on maxisorb plates; mAb dilutions 1 h RT; HRP-conjugated goat anti-human antibody, TMB, OD 620 nm.

Assay [8] deals with T5, Decoy c-Met (extracellular domain of …). Put plainly: SPR: mAb (0.5 µg/ml) kept 1 h at the given temperature, run over a CM-5 chip coupled with 15,000-17,000 RU Decoy c-Met; slope between 100 and 130 s at 30 µl/min in percent of the sample kept at 4 °C. For orientation: In SPR one partner is held on a chip, and binding of the other changes the refractive index at the surface.

One may read the EC50 as the concentration giving half of the maximal effect. The low end stands for a more potent agent, the high end for a less potent agent. The term EC50 (read off the curve) denotes the concentration giving half of the maximal effect.

T5 sequence (P08581 25-932): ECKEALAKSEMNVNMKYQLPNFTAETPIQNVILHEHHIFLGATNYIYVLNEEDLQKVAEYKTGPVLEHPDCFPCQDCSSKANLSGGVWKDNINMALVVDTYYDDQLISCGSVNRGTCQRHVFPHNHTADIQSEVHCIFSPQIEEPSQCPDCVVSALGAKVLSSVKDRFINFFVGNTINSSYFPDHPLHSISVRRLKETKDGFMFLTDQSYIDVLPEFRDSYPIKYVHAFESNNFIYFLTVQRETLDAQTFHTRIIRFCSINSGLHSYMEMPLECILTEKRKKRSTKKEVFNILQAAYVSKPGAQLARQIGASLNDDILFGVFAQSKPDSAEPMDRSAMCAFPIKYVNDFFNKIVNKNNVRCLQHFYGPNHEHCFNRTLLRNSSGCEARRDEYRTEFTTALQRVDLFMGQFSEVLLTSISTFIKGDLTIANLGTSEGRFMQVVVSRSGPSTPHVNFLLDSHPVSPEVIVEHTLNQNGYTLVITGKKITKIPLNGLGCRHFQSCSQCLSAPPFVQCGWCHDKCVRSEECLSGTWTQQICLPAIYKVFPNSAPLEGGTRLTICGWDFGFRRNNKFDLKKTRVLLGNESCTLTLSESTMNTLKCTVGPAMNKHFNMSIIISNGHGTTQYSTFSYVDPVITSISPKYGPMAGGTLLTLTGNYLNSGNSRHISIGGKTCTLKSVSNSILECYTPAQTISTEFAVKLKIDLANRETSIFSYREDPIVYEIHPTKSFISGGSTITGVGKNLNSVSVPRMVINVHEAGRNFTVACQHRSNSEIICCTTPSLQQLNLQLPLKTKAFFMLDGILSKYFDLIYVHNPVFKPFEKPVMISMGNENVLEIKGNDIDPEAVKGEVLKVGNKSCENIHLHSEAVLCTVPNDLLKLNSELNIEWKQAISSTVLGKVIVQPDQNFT
T3 sequence (P08581 25-741 limits assumed): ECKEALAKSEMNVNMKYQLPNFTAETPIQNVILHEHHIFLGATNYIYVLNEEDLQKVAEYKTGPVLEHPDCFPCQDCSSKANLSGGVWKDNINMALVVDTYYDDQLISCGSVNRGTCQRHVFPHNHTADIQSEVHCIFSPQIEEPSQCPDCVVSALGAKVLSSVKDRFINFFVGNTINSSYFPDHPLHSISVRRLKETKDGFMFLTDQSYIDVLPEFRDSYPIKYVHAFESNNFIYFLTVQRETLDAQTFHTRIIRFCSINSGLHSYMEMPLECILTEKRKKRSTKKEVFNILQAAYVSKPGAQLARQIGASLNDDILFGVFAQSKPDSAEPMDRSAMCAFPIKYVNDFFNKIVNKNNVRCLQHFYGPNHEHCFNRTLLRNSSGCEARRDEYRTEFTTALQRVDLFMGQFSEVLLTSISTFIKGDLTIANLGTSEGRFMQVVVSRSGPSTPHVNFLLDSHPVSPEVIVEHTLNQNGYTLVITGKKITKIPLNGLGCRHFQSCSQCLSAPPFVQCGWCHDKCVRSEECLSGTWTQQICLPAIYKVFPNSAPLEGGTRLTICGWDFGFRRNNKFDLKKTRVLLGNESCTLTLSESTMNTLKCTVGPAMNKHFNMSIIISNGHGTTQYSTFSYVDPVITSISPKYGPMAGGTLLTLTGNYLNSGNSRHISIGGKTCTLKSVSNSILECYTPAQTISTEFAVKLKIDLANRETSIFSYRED
T4 sequence (P08581 742-932 limits assumed): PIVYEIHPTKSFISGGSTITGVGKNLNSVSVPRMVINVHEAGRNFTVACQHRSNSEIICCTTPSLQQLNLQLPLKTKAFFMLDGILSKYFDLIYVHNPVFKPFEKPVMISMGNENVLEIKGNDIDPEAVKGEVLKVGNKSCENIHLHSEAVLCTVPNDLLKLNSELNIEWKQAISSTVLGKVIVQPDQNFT
T1 sequence (P08581 27-515): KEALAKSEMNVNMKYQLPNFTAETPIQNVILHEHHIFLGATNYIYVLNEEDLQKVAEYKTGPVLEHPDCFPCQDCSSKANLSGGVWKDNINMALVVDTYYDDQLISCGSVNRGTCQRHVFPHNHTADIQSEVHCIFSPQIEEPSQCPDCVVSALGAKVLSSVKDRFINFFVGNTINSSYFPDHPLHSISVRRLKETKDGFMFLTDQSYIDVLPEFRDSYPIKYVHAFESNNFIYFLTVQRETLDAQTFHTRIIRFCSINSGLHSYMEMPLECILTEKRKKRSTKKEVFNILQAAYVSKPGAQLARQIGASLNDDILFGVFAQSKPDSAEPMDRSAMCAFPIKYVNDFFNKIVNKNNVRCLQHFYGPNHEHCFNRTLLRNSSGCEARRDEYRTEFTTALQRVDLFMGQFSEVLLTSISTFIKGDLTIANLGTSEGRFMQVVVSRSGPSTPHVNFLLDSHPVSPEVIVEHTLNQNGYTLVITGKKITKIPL
T2 sequence (P08581 25-562 limits assumed): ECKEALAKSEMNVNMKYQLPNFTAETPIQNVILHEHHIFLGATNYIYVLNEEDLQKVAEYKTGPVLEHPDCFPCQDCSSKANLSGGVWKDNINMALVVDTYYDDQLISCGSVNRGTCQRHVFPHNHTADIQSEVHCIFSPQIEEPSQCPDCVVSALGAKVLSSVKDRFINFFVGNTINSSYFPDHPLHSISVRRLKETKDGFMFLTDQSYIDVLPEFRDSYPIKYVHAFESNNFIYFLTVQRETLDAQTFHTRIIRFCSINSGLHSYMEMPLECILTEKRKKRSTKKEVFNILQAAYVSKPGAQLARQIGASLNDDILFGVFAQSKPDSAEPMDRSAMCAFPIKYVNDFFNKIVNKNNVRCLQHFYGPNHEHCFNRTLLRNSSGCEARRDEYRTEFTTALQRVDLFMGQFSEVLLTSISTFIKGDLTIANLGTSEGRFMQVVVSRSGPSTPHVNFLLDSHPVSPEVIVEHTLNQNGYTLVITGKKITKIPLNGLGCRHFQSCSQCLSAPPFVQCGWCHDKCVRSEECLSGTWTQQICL
T7 sequence (P08581 25-932 limits assumed): as the sequence (P08581 25-932) above

B1: 13E6 mAb (antibody, V domains shown)
VH: QVQLQESGGDLVQPGGSLRLSCAASGFTFDDYVMNWVRQAPGKGLEWISAINWNGGSTYYAESMKGRFTISRDNAKNTLYLQMYSLQSDDTAVYYCVKDTVVSGNGYWGQGTQVTVSS
VL: QSVLTQPPSVSGTLGKTVTISCAGTSSDIGDYNYVSWYQQLPGTAPKLLIYDVNKRASGIPDRFSGSKSGNTASLSISGLQSEDEADYYCASYRSRNDYAFGGGTKLTVL
B1: the binding result in assay [1], in assay [2], in assay [3] and in assay [4] was “no binding (tested: 1 µg/ml)” in each case. Also, the EC50 in assay [5] and in assay [6] was 0.19 nM throughout. Also, the “EC50 (read off the curve)” value in assay [7] was approximately 1 nM.

B2: 20A11 mAb (antibody, V domains shown)
VH: QVQLVESGGGLVQPGGSLRLSCAASGFTFDDYAMSWVRQAPGKGLEWVSAISWNGSSTYYAESMKGRFTISRDNAKNTLYLQMNSLKSEDTAVYYCAKDLIGSHDYWGQGTQVTVSS
VL: QAVLTQPPSVSGTLGKTLTISCAGTSSDVGYGNYVSWYQQLPGTAPKLLIYAVSTRASGIPDRFSGSKSGNTASLTISGLQSEDEADYYCASYRSSNNYAFGAGTKLTVL
B2: the binding result in assay [1], in assay [2], in assay [3] and in assay [4] was “no binding (tested: 1 µg/ml)” in each case. The EC50 in assay [5] worked out at 4.3 nM; in assay [6], 3.4 nM.

B3: 56F3 (antibody, V domains shown)
VH: EVQLVQPGAEVKKPGASVKVSCKASGYIFTMNSIDWVRQAPGQGLEWMGRIDPEEGGTKYAQKFQGRVTMTADTSTSTAYMELSSLRSDDTAVYYCARVDDYYLGYDYWGQGTQVTVSS
VL: DIVMTQSPDSLAASLGERVTINCKSSQSVLFSSNQKNYLAWYQQRPGQSPKLLIYWASIRESGVPDRFSGSGSGTDFTLTISSLQAEDVAVYYCQQGYSFPYSFGSGTRLEIK
notes: also called germlined variant of 48A2
Take B3: the binding result in assay [8] was “binds”.
